Results taken from patent publication US20250076311A1 (Chugai, published 2025).
Substitutions are numbered along the chain they refer to. Names and notes keep the numbering of the source. One block for each binder: values may come before it.

Experiments:
[1] = molecular target: T1, cynomolgus monkey FcγRIIIaS extracellular domain with C-terminal His-tag (cynomolgus monkey, UniProt Q8SPW2 21-206 at identity 1.00)); assay: SPR, KD(SG1)/KD(variant)
T1 construct: also called cyno FcgRIIIaS; cynoFcγRIIIaS
T1 chain: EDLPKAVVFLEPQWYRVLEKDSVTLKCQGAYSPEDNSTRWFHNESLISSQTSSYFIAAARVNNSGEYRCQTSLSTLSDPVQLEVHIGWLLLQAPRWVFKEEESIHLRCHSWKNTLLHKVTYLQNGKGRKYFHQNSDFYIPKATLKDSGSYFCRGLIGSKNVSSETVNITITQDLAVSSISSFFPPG

[2] = molecular target: T2, human FcγRIIaH extracellular domain with C-terminal His-tag (human, UniProt P12318 34-217); assay: SPR, KD(parent SG1)/KD(variant)
T2 construct: also called human FcgRIIaH; FcγRIIa (type H)
T2 sequence: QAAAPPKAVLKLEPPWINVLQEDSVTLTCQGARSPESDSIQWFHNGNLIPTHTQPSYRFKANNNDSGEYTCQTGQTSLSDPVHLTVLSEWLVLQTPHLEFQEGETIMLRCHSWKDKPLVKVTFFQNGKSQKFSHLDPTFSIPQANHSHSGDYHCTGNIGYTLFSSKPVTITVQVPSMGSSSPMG

[3] = molecular target: T3, human FcγRIIb extracellular domain with C-terminal His-tag (human, UniProt P31994 43-217); assay: SPR, KD(parent SG1)/KD(variant)
T3 construct: also called human FcgRIIb
T3 sequence: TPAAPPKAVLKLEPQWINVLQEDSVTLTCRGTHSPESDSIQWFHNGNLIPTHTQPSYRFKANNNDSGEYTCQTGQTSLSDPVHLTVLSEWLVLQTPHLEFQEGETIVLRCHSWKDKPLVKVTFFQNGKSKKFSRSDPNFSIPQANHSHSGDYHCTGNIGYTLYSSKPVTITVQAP

[4] = molecular target: T1, cynomolgus monkey FcγRIIIaS …; assay: SPR, KD(parent SG1)/KD(variant)
[5] = molecular target: T4, human FcγRIIIaV extracellular domain with C-terminal His-tag (human, UniProt P08637 17-208); assay: SPR (BIACORE), antibody captured, FcgR analyte
T4 construct: also called human FcgRIIIaV; not shown: His-tag added to the C-terminus
T4 sequence (P08637 17-208 F176V): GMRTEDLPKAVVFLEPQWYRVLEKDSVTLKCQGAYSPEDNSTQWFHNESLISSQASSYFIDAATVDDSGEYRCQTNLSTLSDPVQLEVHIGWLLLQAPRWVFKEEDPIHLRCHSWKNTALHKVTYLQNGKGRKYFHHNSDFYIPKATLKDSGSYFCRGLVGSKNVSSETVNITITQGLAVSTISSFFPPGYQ

[6] = molecular target: T5, cynomolgus monkey FcγRIIb extracellular domain with C-terminal His-tag (cynomolgus monkey); assay: SPR (BIACORE), antibody captured, FcgR analyte
T5 construct: also called cyno FcgRIIb; cynoFcγRIIb; not shown: His-tag added to the C-terminus
T5 chain: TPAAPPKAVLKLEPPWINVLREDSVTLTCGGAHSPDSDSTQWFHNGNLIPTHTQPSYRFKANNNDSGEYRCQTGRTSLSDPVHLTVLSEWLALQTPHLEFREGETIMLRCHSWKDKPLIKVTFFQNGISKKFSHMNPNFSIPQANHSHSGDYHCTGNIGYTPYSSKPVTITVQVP

[7] = molecular target: T6, cynomolgus monkey FcγRIIIaS extracellular domain with C-terminal His-tag (cynomolgus monkey, UniProt A3RFZ7 21-206 (rhesus entry)); assay: SPR (BIACORE), antibody captured, FcgR analyte
T6 construct: also called cyno FcgRIIIaS; cynoFcγRIIIaS; not shown: His-tag added to the C-terminus

[8] = molecular target: T7, human FcγRIIaR extracellular domain with C-terminal His-tag (human, UniProt P12318 34-217); assay: SPR (BIACORE), antibody captured, FcgR analyte
T7 construct: also called human FcgRIIaR; FcγRIIa type R; not shown: His-tag added to the C-terminus
T7 chain: T2 sequence with H134R

[9] = molecular target: T8, cynomolgus monkey FcγRIIa3 extracellular domain with C-terminal His-tag (cynomolgus monkey); assay: SPR (BIACORE), antibody captured, FcgR analyte
T8 construct: also called cyno FcgRIIa3; cynoFcγRIIa3; not shown: His-tag added to the C-terminus
T8 chain: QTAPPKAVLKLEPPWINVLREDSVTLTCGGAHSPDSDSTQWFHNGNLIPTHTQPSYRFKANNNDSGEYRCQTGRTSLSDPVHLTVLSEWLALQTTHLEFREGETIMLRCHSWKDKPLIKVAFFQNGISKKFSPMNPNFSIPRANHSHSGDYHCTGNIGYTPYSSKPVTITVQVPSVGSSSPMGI

[10] = molecular target: T9, human FcγRIIb extracellular domain with C-terminal His-tag (human, UniProt P31994 43-217); assay: SPR (BIACORE), antibody captured, FcgR analyte
T9 construct: also called human FcgRIIb; not shown: His-tag added to the C-terminus
T9 sequence: T3 sequence

[11] = molecular target: T10, cynomolgus monkey FcγRIIa3 extracellular domain with C-terminal His-tag (cynomolgus monkey); assay: SPR (Biacore), KD of SG1 / KD of variant
T10 construct: also called cyno FcgRIIa3; cynoFcγRIIa3
T10 chain: T8 chain
Description: (§1) The kinetic analysis of interactions between these antibodies and FcγR was carried out using BIACORE® T200 or BIACORE® 4000 (GE Healthcare). HBS-EP+ (GE Healthcare) was used as the running buffer, and the measurement temperature was set to 25° C. […] After the measurement, the antibody captured on the chip was washed off by allowing reaction with 10 mM glycine-HCl, pH1.5 and 25 mM NaOH so that the chip was regenerated and used repeatedly. The sensorgrams obtained as measurement results were analyzed by the 1:1 Langmuir binding model using the BIACORE® Evaluation Software to calculate the binding rate constant ka (L/mol/s) and dissociation rate constant kd (1/s), and the dissociation constant KD (mol/L) was calculated from these values. […] Regarding such interactions, KD values were calculated using the following 1:1 binding model described in BIACORE® T100 Software Handbook BR1006-48 Edition AE.

[12] = molecular target: T11, human FcγRIIIaV extracellular domain with C-terminal His-tag (human, UniProt P08637 17-208); assay: SPR (Biacore), antibody captured, FcgR analyte
T11 construct: also called human FcgRIIIaV
Description: as §1
T11 sequence (P08637 17-208 F176V): as the sequence (P08637 17-208 F176V) above

[13] = molecular target: T12, human FcγRIIaR extracellular domain with C-terminal His-tag (human, UniProt P12318 34-217); assay: SPR (Biacore), antibody captured, FcgR analyte
T12 construct: also called human FcgRIIaR; FcγRIIa (type R)
T12 chain: T2 sequence with H134R
Description: as §1

B1: M103205H795-MY536/M103202L889-SK1 (antibody, human IgG1, kappa, name in EU numbering)
heavy: QVTLKESGPVLVKPTETLTLTCTVSGIDLSHDDISWVRQAPGKGLEWVGIISYAGSTYYASWAKGRLTISKDTSKNQVVLTMTNMDPVDTATYYCARGVPAYSHGGDLWGQGTLVTVSSASTKGPSVFPLAPSSKSTSGGTAALGCLVKDYFPEPVTVSWNSGALTSGVHTFPAVLQSSGLYSLSSVVTVPSSSLGTQTYICNVNHKPSNTKVDKKVEPKSCDKTHTCPPCPGPEWLTGPVVFLFPPKPKDTLMISRTPEVTCVVVDVSDEDPEVKFNWYVDGVEVHNAKTKPREEQYNSTYRVVSVLTVLHQDWLNGKEYKCKVSNKALPKPIEKTISKAKGQPREPQVYTLPPSREEMTKNQVSLTCLVKGFYPSDIAVEWESNGQPENNYKTTPPVLDSDGSFFLYSKLTVDKSRWQQGNVFSCSVMHEALHNHYTQKSLSLSP
light: DIVMTQSPATLSLSPGERATLSCTSSQSVYHANWLSWFQQKPGQPPKLLIYWASTLAYGVPSRFSGSGSGTDFTLTISSLQPEDAATYYCAGGYGGGRYAFGQGTKVEIKRTVAAPSVFIFPPSDEQLKSGTASVVCLLNNFYPREAKVQWKVDNALQSGNSQESVTEQDSKDSTYSLSSTLTLSKADYEKHKVYACEVTHQGLSSPVTKSFNRGEC
notes: copies: 2 + 2
- KD fold (SG1 = 1) [1]: 0.23 fold

B5: M103205H795-MY210/M103202L889-SK1 (antibody, human IgG1, kappa, name in EU numbering)
heavy: B1 heavy with G233A, W236L, T238N, V241S, K328T
light: B1 light
notes: Fc variant of MS1032LO06-SG1; positions in EU numbering
- Kd [5]: 31000 nM
- Kd [6]: 280 nM
- Kd [7]: 2400 nM
- Kd [8]: 1400 nM
- Kd [9]: 2300 nM

B6: M103205H795-MY288/M103202L889-SK1 (antibody, human IgG1, kappa, name in EU numbering)
heavy: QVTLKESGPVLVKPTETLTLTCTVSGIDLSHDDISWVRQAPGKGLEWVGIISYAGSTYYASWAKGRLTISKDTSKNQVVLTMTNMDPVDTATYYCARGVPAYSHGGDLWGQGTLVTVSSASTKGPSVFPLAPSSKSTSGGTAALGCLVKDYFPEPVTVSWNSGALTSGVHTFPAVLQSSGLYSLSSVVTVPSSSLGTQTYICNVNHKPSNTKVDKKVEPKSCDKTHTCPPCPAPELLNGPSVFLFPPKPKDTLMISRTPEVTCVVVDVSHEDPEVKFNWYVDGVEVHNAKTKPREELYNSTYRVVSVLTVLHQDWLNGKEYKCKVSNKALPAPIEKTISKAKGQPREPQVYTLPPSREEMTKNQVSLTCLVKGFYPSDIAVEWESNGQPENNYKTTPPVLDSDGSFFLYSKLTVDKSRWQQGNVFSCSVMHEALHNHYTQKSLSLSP
light: B1 light
notes: as for B5
- Kd [6]: 1200 nM
- Kd [7]: 1.3 nM
- Kd [10]: 5100 nM

B7: M103205H795-MY448/M103202L889-SK1 (antibody, human IgG1, kappa)
heavy: B1 heavy with G233A, P234K, W236L, V241S
light: B1 light
notes: Substitutions in EU numbering on SG1
- KD fold (SG1 = 1) [11]: 0.6 fold
- Kd [12]: 1300 nM
- Kd [13]: 21 nM

B8: M103205H795-MY538/M103202L889-SK1 (antibody, human IgG1, kappa, name in EU numbering)
heavy: B1 heavy with V241S, Q297L
light: B1 light
notes: copies: 2 + 2
- KD fold (SG1 = 1) [1]: 0.25 fold

B9: M103205H795-MY265/M103202L889-SK1 (antibody)
heavy: B1 heavy with G233A, W236L, V241S
light: B1 light
notes: Substitutions in EU numbering on SG1; the cell prints I236T, the text gives Thr at 236 of MY201 (G236T)
- Kd [12]: 5400 nM

B10: M103205H795-MY212/M103202L889-SK1 (antibody, human IgG1, kappa, name in EU numbering)
heavy: B1 heavy with G233A, W236L, T238N, Q297L, K328T
light: B1 light
notes: as for B5
- Kd [6]: 570 nM
- Kd [7]: 2600 nM
- Kd [9]: 2900 nM

More lines, now with the values ahead:

- KD fold (SG1 = 1) [2]: 0.5 fold
- KD fold (SG1 = 1) [3]: 1 fold
- KD fold (SG1 = 1) [4]: 0.06 fold
B2: MS1032LO06-SG1033 (antibody, human IgG1, kappa, name in EU numbering)
heavy: B1 heavy with G233A, W236L, T238N, V241S, N436A
light: B1 light
notes: tied to rows r11/r29 by row order only; also called MS103205H795-SG1033; copies: 2 + 2

- KD fold (SG1 = 1) [2]: 2.7 fold
- KD fold (SG1 = 1) [3]: 1 fold
- KD fold (SG1 = 1) [4]: 0.11 fold
B3: MS1032LO06-SG1034 (antibody, human IgG1, kappa, name in EU numbering)
heavy: B1 heavy with G233A, W236L, V241S, Q313R, D415K, N436A
light: B1 light
notes: tied to rows r12/r30 by row order only; also called MS103205H795-SG1034; copies: 2 + 2

- KD fold (SG1 = 1) [2]: 2.5 fold
- KD fold (SG1 = 1) [4]: 0.18 fold
B4: MS1032LO19-SG1080 (antibody, name in EU numbering)
heavy: QVQLVESGGGLVQPGGSLRLSCAVSGIDLSHDDISWVRQAPGKGLEWVSIISYAGSTYYASWAKGRLTISKDTSKNQVVLTMTNMDPVDTATYYCARGVPAYSHGGDLWGQGTLVTVSSASTKGPSVFPLAPSSKSTSGGTAALGCLVKDYFPEPVTVSWNSGALTSGVHTFPAVLQSSGLYSLSSVVTVPSSSLGTQTYICNVNHKPSNTKVDKKVEPKSCDKTHTCPPCPAPELLNGPSVFLFPPKPKDTLMISRTPEVTCVVVDVSDEDPEVKFNWYVDGVEVHNAKTKPREELYNSTYRVVSVLTVLHRDWLNGKEYKCKVSNTALPKPIEKTISKAKGQRREPQVYTLPPSREEMTKNQVSLTCLVKGFYPSDIAVEWESNGQPENNYKTTPPVLDSDGSFFLYSKLTVDKSRWQQGNVFSCSVMHEALHAHYTRKELSLSP
light: B1 light with S25T, A32E
notes: tied to rows r18/r36 by row order only; also called MS103240H795-SG1080
